From PMC2064962, “Inhibition of Protein Aggregation: Supramolecular Assemblies of Arginine Hold the Key” (PLoS ONE, 2007)

Molecular target: the molecule itself
Assay: SEC; SMART Superdex G75 column, 0.02 M sodium phosphate buffer pH 7.4 (PB), with or without 0.2 M arginine; 10 µg peptide in 50 µl, flow 100 µl/min, monitored at 257 nm; self-association, monomer and tetramer seen

B1: Mouse Alzheimer's amyloid beta 1-42 peptide (peptide)
peptide: DAEFGHDSGFEVRHQKLVFFAEDVGSNKGAIIGLMVGGVVIA
notes: Amyloid beta 1-42, the cut product of mouse amyloid precursor protein (APP); numbers count on: the Aβ peptide; it was removed; also called Aβ_(1-42); mouse Aβ_(1-42); source: synthetic peptide (Fmoc chemistry, purified on ProRPC C-18); dissolved in 0.01 M NaOH before use
- stoichiometry N: 4
